Patent publication EP1340979A2, “Neuropeptide receptor and uses thereof” (Pfizer Limited, priority 2002, dated 2003)
Like-named read-outs stand apart in the source and are kept apart here. Where a SMILES comes first, the peptide text is derived from it. Bridges are numbered along the chain shown (N, C = ends). [ ]: non-standard residue; d: D form. The star is where a group is joined. d2Nal = N[C@H](Cc1ccc2ccccc2c1)C(=O)O; Nle = CCCC[C@H](N)C(=O)O; Ahp = NCCCCCCC(=O)O; Bn = c1ccc(C*)cc1

Columns and labels:
receptor MRGX2 [1] = molecular target: T1, receptor MRGX2 (Homo sapiens, UniProt Q96LB1); experiment: Functional assay measuring intracellular calcium mobilisation (FLIPR); assay type: cell-based; parameters: expressed in transfected cells; host or cells: e.g. HEK293 or CHO-K1 engineered to stably express Galpha15 / Gqi-5; details: for response of the MRGX2 receptor: at a concentration of 1µM
T1 sequence (Q96LB1 1-330): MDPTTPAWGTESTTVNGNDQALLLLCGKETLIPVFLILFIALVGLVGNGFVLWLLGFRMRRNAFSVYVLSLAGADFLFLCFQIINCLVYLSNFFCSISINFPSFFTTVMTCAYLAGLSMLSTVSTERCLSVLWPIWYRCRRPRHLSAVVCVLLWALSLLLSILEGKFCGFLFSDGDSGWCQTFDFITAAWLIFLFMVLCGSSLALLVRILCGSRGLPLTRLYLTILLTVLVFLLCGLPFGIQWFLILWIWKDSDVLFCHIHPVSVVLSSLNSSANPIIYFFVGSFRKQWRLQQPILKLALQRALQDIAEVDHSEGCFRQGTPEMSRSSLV

receptor MRGX2 [2] = molecular target: T1, receptor MRGX2; experiment: as above; assay type: cell-based; parameters: expressed in transfected cells; host or cells: host cell line, e.g. HEK293 or CHO-K1, engineered to stably express Gα15 / Gqi-5; details: Preliminary EC50 data for receptor MRGX2; transiently transfected host cells expressing Gα15 / Gqi-5, Fluo3 fluorescence
Protocol: 5 x 10^6 cells of a suitable host cell line, chosen to express a low number of endogenous receptors (e.g. HEK293 or CHO-K1) and engineered to stably express Gα15 / Gqi-5, were transiently transfected with 7.5 µg of cDNA encoding receptor MRGX2 in a suitable mammalian cell expression vector, or vector alone, using Lipofectamine Plus® reagent (Gibco BRL) as per the manufacturer's protocol. If the cells were intended for a ligand binding assay or microphysiometry, they were incubated for 24-72 hours post transfection, and then harvested. […]
Fluorescence Imaging Plate Reader (FLIPR®) technology was employed as a means to detect activation of receptor MRGX2 by various potential GPCR agonists.
Cells were transfected as described in Example 3. […] The FLIPR® processing involved reading the fluorescence for all samples for 2 minutes; during this time the fluorescence baseline was determined for 10 seconds. The desired amount of compounds (i.e. potential GPCR agonists) was then automatically transferred to the wells and the fluorescence was continuously monitored for the remainder of the time. […]
Compounds capable of acting as agonists for the receptor were identified by them causing a transient rise in fluorescence, and therefore in intracellular calcium, in the cells.

[3] = i.c.v. administration, free feeding rats, maximal response at 1nmol dose; cited from earlier work
MC4 receptor = MC4 receptor (Homo sapiens, UniProt P32245); details: cited from earlier work
receptor MRGX2 (human) = receptor MRGX2 (human) (UniProt Q96LB1); experiment: cell-based or functional assay
SNSR3 = SNSR3 (MRGX1); cited from earlier work
five known SST receptors = details: range over the five known SST receptors; cited from earlier work
[4] = Preliminary EC50 data for receptor MRGX2, transiently transfected host cells expressing Gα15 / Gqi-5, Fluo3 fluorescence, read-out: EC50

Chain of MC4 receptor (P32245 whole entry): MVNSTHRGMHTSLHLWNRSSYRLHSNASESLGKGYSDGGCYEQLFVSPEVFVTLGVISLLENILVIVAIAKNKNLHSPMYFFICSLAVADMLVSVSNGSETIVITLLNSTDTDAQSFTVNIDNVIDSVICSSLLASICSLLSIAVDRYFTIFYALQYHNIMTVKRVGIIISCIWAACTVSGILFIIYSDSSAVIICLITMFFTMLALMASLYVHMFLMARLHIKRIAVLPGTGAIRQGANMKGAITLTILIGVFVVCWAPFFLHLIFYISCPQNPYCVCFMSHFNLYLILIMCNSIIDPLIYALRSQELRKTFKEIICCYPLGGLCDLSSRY

| Molecule | EC50 (µM), intracellular calcium mobilisation (FLIPR) (receptor MRGX2 (human)) [µM] | other results |
| --- | --- | --- |
| CC[C@H](C)[C@@H]1NC(=O)[C@H](Cc2ccc(O)cc2)NC(=O)[C@@H](N)CSSC[C@@H](C(=O)N2CCC[C@H]2C(=O)N[C@H](C(=O)NCC(N)=O)[C@@H](C)CC)NC(=O)[C@H](CC(N)=O)NC(=O)[C@H](CO)NC1=O [(Ser^4, Ile^8)-Oxytocin] (H-CYISNCPIG-NH2; disulfide 1-6) | – | EC50 (receptor MRGX2 [1]; [4]): 7.4 µM |
| Nc1ncnc2nc[nH]c12 [Adenine] | – | EC50 (receptor MRGX2 [2]): No response |
| CSCC[C@H](NC(=O)[C@@H]1CCCN1C(=O)CNC(=O)[C@H](CCCCN)NC(=O)[C@H](Cc1cnc[nH]1)NC(=O)[C@H](CO)NC(=O)[C@H](CC(C)C)NC(=O)[C@H](CCCNC(=N)N)NC(=O)[C@@H]1CCCN1C(=O)[C@H](CCCNC(=N)N)NC(=O)[C@@H](N)CCC(N)=O)C(=O)N1CCC[C@H]1C(=O)N[C@@H](Cc1ccccc1)C(=O)O [Apelin 13] | – | EC50 (receptor MRGX2 [1]): > 10 µM |
| C[C@@H](OCc1ccccc1)[C@@H]1NC(=O)[C@H](CCCCN)NC(=O)[C@@H](Cc2c[nH]c3ccccc23)NC(=O)[C@H](Cc2ccccc2)NC(=O)CCCCCCNC1=O [Cyclosomatostatin] (cyclo([Ahp]F[dW]KT(Bn)); ring closure inferred) | – | EC50 (receptor MRGX2 [1]; [4]): 1.47 µM |
| C[C@H](N)C(=O)NCC(=O)N[C@H]1CSSC[C@@H](C(=O)O)NC(=O)[C@H](CO)NC(=O)[C@H]([C@@H](C)O)NC(=O)[C@H](Cc2ccccc2)NC(=O)[C@H]([C@@H](C)O)NC(=O)[C@H](CCCCN)NC(=O)[C@@H](Cc2c[nH]c3ccccc23)NC(=O)[C@H](Cc2ccccc2)NC(=O)[C@H](Cc2ccccc2)NC(=O)[C@H](CC(N)=O)NC(=O)[C@H](CCCCN)NC1=O [D-Trp-Somatostatin] | – | EC50 (receptor MRGX2 [1]; [4]): 0.179 µM |
| CCCC[C@@H]1NC(=O)[C@@H](NC(C)=O)CSSC[C@@H](C(N)=O)NC(=O)CNC(=O)[C@H](Cc2c[nH]c3ccccc23)NC(=O)[C@H](CCCNC(=N)N)NC(=O)[C@@H](Cc2ccc3ccccc3c2)NC(=O)[C@H](Cc2c[nH]cn2)NC(=O)[C@H](CCCNC(=N)N)NC1=O [HS024, (Acetyl-Cys^3,Nle^4,Arg^5,D-2-Nal^7,Cys^11)-a-MSH (3-11) amide] (Ac-C[Nle]RH[d2Nal]RWGC-NH2; disulfide 1-9 (inferred)) | – | food intake [3]: dose dependant increase in food intake; Ki (MC4 receptor): 0.00029 µM |
| CC(C)C[C@H](NC(=O)[C@H](CC(N)=O)NC(=O)[C@@H]1CCCN1C(=O)[C@@H](N)C(C)C)C(=O)N1CCC[C@H]1C(=O)N[C@@H](CCC(N)=O)C(=O)N[C@@H](CCCNC(=N)N)C(=O)N[C@@H](Cc1ccccc1)C(N)=O [NPVF] | – | EC50 (receptor MRGX2 [1]; [4]): > 10 µM |
| CC[C@H](C)[C@@H]1NC(=O)[C@H](Cc2ccc(O)cc2)NC(=O)[C@@H](N)CSSC[C@@H](C(=O)N2CCC[C@H]2C(=O)N[C@@H](CC(C)C)C(=O)NCC(N)=O)NC(=O)[C@H](CC(N)=O)NC(=O)[C@H](CCC(N)=O)NC1=O [Oxytocin] | – | EC50 (receptor MRGX2 [1]; [4]): 1.47 µM |
| CC(C)[C@@H]1NC(=O)[C@H](CCCCN)NC(=O)[C@@H](Cc2c[nH]c3ccccc23)NC(=O)[C@H](Cc2ccc(O)cc2)NC(=O)[C@@H](NC(=O)[C@H](N)Cc2ccc3ccccc3c2)CSSC[C@@H](C(=O)N[C@H](C(N)=O)[C@@H](C)O)NC1=O [Peptide N9642, β-(2-Naphthyl)-D-Ala-Cys-Tyr-D-Trp-Lys-Val-Cys-Thr amide [Disulfide Bridge: 2-7]] | – | EC50 (receptor MRGX2 [1]; [4]): 0.251 µM |
| (Deamino-Cysl,D-Orn^8) Vasopressin (from UniProt P01185 20-28) (peptide) | > 10 | – |
| (Ser^4, Ile^8)-Oxytocin (from UniProt P01178 20-28) (peptide) | 7.4 | – |
| Apelin 13 (from UniProt Q9ULZ1 65-77) (peptide) | > 10 | – |
| BAM 13-22 (from UniProt P01211 37-46) (peptide) | 0.1 | – |
| Bovine adrenal medulla peptide 22 [BAM 22] | – | EC50 (SNSR3): 0.013 µM |
| Cortistatin (PCKNFFWKTFSSCK) [CST, cyclic peptide derived from a prepropeptide of 114 residues in man] | – | EC50 (five known SST receptors): 0.00025 to 0.0009 µM |
| Cyclosomatostatin (peptide) | 1.47 | – |

| Molecule | EC50 (µM), intracellular calcium mobilisation (FLIPR) (receptor MRGX2 (human)) [µM] | other results |
| --- | --- | --- |
| D-Trp-Somatostatin (from UniProt P61278 103-116) (peptide) | 0.179 | – |
| Dynorphin A (from UniProt P01213 207-219) (peptide) | 1.85 | – |
| HS014 (peptide) | > 10 | – |
| HS024 (Acetyl-Cys^3,Nle^4,Arg^5,D-2-Nal^7,Cys^11)-α-MSH (3-11) amide (from UniProt P01189 140-148) (peptide) | 0.42 | – |
| Hexarelin (peptide) | 9.5 | – |
| N9642 (β-(2-Naphthyl)-D-Ala-Cys-Tyr-D-Trp-Lys-Val-Cys-Thr amide [Disulfide Bridge: 2-7] (sst2R agonist)) (peptide) | 0.251 | – |
| NPAF (from UniProt O15130 93-110) (peptide) | > 10 | – |
| NPSF (peptide) | > 10 | – |
| NPVF (from UniProt Q9HCQ7 124-131) (peptide) | > 10 | – |
| Nociceptin (from UniProt Q13519 130-146) (peptide) | > 10 | – |
| Octreotide (peptide) | > 10 | – |
| Oxytocin (from UniProt P01178 20-28) (peptide) | 1.47 | – |
| Somatostatin 14 (from UniProt P61278 89-116) (peptide) | 0.78 | – |
| α-MSH | – | response of the MRGX2 receptor (receptor MRGX2 [1]): responds |
| γ-MSH | – | response of the MRGX2 receptor (receptor MRGX2 [1]): responds |
